Source: PMC8000039, “Toxin-Activating Stapled Peptides Discovered by Structural Analysis Were Identified as New Therapeutic Candidates That Trigger Antibacterial Activity against Mycobacterium tuberculosis in the Mycobacterium smegmatis Model” (Microorganisms, 2021)

Key:
[1] = tested on: VapBC26-harboring M. smegmatis; experiment: Confocal microscopy of FITC-labeled peptides (cell permeability); format: cell-based, Mycobacterium smegmatis; conditions: FITC-labeled peptide 10 μM, 1 h, 37 °C, trypsin to degrade surface-bound and extracellular peptide, two independent experiments
Procedure: Confocal microscopy was used to assess the permeability of M. smegmatis using FITC-labeled peptides. Cultures of M. smegmatis grown in complete 7H9 medium to mid-logarithmic phase (OD600 0.3–0.5) were diluted 5-fold with Muller-Hinton broth (BD Biosciences, Franklin Lakes, NJ, USA). Diluted cell suspensions were aliquoted into Eppendorf tubes and treated with 10 μM peptide. After 1 h of incubation at 37 °C and 100 rpm, the cell suspensions were washed with PBS. If successful internalization of FITC-labeled peptides is achieved, then fluorescence will be detected in the images. Surface-bound peptides and extracellular peptides were degraded by trypsin, and thus remained fluorescence signals in the images indicate the indeed internalization of peptide. Images were acquired on a TCS8 confocal scope (Leica Microsystems, Wetzlar, Germany) with a 63× oil immersion objective.

[2] = CD spectroscopy, helicity calculated by CDNN software; format: physicochemical; conditions: 50 μM peptide, 10 mM potassium phosphate pH 7, 100 mM ammonium sulfate, 20 °C, average of three scans
Procedure: CD measurements were conducted at 20 °C using a Chirascan Plus spectropolarimeter (Applied Photophysics, Leatherhead, UK) in a cuvette with a 1 mm path length. The peptide samples were prepared at 50 μM in buffer consisting of 10 mM potassium phosphate (pH 7) and 100 mM ammonium sulfate. CD scans were taken from 180 nm to 260 nm at a speed of 100 nm/min with a 1 nm bandwidth. The helicity of each peptide was calculated by CDNN software.

[3] = tested on: VapBC26-expressing M. smegmatis mc2155 cells; format: cell-based, Mycobacterium smegmatis

For “VapC26 α4_54–65: linear α4-mimicking peptide of VapC26 (residues 54–65), from the authors' previous study (DAELAVLRELAG; UniProt O53779 54-65, looked up, fragment)”, which “cell penetration / uptake, fluorescence signal inside the cells” value [1] is on record?
The value was “barely observed”.

And the “Helicity (α-helical propensity)” value [2]?
Its value is 20.8%.

And the “effect on cell growth (OD600) compared with control cells” value [3]?
The value was “only a slight effect”.
